Source: paper PMC2993495 (Molecular cell, 2009)
Several values for one entry are separate records, joined by “and”; a condition that tells them apart may be missing. Identical values can stand only once.

T1: Smc5-TAF (budding yeast (S. cerevisiae), UniProt Q08204 1-1093)
T1 sequence (looked up): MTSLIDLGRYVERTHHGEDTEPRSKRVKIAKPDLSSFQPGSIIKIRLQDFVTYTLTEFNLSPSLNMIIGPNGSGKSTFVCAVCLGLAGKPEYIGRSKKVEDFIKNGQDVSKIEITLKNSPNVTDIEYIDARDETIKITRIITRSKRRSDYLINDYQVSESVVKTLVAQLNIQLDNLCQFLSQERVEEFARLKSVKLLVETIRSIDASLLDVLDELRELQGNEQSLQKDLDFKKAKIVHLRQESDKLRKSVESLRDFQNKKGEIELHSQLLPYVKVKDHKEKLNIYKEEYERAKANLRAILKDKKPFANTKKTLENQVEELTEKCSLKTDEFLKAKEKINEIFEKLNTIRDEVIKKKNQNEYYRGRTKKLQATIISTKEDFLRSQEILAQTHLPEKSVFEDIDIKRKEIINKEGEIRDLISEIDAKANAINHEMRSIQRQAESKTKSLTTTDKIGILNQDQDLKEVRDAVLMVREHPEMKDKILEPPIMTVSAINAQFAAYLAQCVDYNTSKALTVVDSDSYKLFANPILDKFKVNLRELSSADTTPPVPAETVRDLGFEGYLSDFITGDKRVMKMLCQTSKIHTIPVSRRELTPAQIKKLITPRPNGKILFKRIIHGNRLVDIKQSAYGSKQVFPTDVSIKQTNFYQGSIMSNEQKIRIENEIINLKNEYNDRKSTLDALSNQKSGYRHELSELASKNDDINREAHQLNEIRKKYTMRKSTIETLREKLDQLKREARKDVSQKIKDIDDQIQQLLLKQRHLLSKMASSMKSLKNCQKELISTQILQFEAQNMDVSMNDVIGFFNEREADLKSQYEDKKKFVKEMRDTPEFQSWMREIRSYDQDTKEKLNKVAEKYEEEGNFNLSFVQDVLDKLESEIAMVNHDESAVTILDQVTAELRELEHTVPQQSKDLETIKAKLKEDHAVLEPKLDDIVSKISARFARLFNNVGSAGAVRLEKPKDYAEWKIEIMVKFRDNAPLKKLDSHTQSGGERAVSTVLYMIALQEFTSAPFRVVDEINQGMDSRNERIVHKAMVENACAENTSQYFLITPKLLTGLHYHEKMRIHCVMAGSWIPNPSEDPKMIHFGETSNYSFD

T2: Mms21, full length (crystallised complex) (budding yeast (S. cerevisiae), UniProt P38632 1-267)
T2 sequence (looked up): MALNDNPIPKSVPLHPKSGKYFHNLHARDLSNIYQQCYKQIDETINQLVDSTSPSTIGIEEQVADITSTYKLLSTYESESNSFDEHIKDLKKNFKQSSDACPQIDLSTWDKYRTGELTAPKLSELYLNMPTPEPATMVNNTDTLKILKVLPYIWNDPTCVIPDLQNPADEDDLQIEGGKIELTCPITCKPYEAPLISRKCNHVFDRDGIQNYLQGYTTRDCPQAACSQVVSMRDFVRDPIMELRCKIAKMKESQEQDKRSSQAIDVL


Key:
[1] = biological target: His6-tagged wild-type Mms21 (budding yeast (S. cerevisiae)) (UniProt P38632); test: ITC
[2] = biological target: Mms21-M1, His6-tagged (budding yeast (S. cerevisiae)) (UniProt P38632); test: pull-down
Smc5-TAF = biological target: T1, Smc5-TAF; test: co-IP
[3] = biological target: T2, Mms21, full length (crystallised …); test: crystal structure

Smc5 binding, percent of wild-type (Smc5-TAF) | Molecule | other results
– | GST-Smc5-arm (from UniProt Q08204 302-369; Q08204 733-813) (domain or fragment) | dH [1]: -18.2 kcal/mol and -22 kcal/mol; Smc5 binding, percent of wild-type (% of wild-type) [2]: 84
5 % of wild-type | mms21-M1-3HA (natural protein, budding yeast (S. cerevisiae)) MALNDNPIAKSAPAAPKSGKYFHNLHARDLSNIYQQCYKQIDETINQLVDSTSPSTIGIEEQVADITSTYKLLSTYESESNSFDEHIKDLKKNFKQSSDACPQIDLSTWDKYRTGELTAPKLSELYLNMPTPEPATMVNNTDTLKILKVLPYIWNDPTCVIPDLQNPADEDDLQIEGGKIELTCPITCKPYEAPLISRKCNHVFDRDGIQNYLQGYTTRDCPQAACSQVVSMRDFVRDPIMELRCKIAKMKESQEQDKRSSQAIDVL | –
66 % of wild-type | mms21-M5-3HA (natural protein, budding yeast (S. cerevisiae)) MALNDNPIPKSVPLHPKSGKYFHNLHARDLSNIYQQCYKQIDETINQLVDSTSPSTIGIEEQVADITSTYKLLSTAESAANSADEHIKDLKKNFKQSSDACPQIDLSTWDKYRTGELTAPKLSELYLNMPTPEPATMVNNTDTLKILKVLPYIWNDPTCVIPDLQNPADEDDLQIEGGKIELTCPITCKPYEAPLISRKCNHVFDRDGIQNYLQGYTTRDCPQAACSQVVSMRDFVRDPIMELRCKIAKMKESQEQDKRSSQAIDVL | –
30 % of wild-type | mms21-M3-3HA (natural protein, budding yeast (S. cerevisiae)) MALNDNPIPKSVPLHPKSGKYFHNLHARDLSNAAQQAYKQIDETINQLVDSTSPSTIGIEEQVADITSTYKLLSTYESESNSFDEHIKDLKKNFKQSSDACPQIDLSTWDKYRTGELTAPKLSELYLNMPTPEPATMVNNTDTLKILKVLPYIWNDPTCVIPDLQNPADEDDLQIEGGKIELTCPITCKPYEAPLISRKCNHVFDRDGIQNYLQGYTTRDCPQAACSQVVSMRDFVRDPIMELRCKIAKMKESQEQDKRSSQAIDVL | –
– | Smc5 arm chimera (Asp302-Leu369, Gly-Ser-Gly-Ser linker, Lys733-Gln813), 6xHis-tagged (domain or fragment, budding yeast (S. cerevisiae)) DKKPFANTKKTLENQVEELTEKCSLKTDEFLKAKEKINEIFEKLNTIRDEVIKKKNQNEYYRGRTKKLGSGSKREARKDVSQKIKDIDDQIQQLLLKQRHLLSKMASSMKSLKNCQKELISTQILQFEAQNMDVSMNDVIGFFNEREADLKSQ | binding result [3]: binds
